From PMC3050729, “Novel computational analysis of protein binding array data identifies direct targets of Nkx2.2 in the pancreas” come the findings set out here.

The target in this series is T1, Nkx2.2 (in vitro translated) (UniProt P42586 1-273).
T1 sequence: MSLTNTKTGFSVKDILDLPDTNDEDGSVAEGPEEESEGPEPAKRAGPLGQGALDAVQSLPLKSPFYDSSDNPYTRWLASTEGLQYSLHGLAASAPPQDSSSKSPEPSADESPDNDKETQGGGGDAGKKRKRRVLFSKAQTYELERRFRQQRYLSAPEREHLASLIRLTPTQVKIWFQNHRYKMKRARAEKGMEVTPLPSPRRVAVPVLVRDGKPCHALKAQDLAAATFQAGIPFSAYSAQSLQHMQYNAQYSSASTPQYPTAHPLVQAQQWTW
Put plainly: EMSA; EMSA as in ref 20; buffer, salt, pH and temperature not given. Conditions: protein: ivt, label: 32P-dCTP Klenow fill-in, filled in with Klenow. A general note: A gel shift assay detects complexes by their altered migration in electrophoresis.

B1: Ins2 -477 (Ins -471 in probe list) (dsDNA)
DNA 1: AAGCAGAACTCAGGCAGCAAGGTACTTAATGGTCCCTCCTTCTCCATC
DNA 2: AGAGATGGAGAAGGAGGGACCATTAAGTACCTTGCTGCCTGAGTTCT
Regarding B1, where the note is “5' overhangs”, the binding result is reported as “binds”.

B2: Nkx6.2 +1669 (+669 in probe list) (dsDNA)
DNA 1: CCGAATCCCGCGCGGGCCACTTACCGGAGCCGGCCAGTCGCGGGTCCCTC
DNA 2: CTGGAGGGACCCGCGACTGGCCGGCTCCGGTAAGTGGCCCGCGCGGGATT
B2: the binding result (5' overhangs) is recorded as “no binding”.

B3: Gcg -1080 (dsDNA)
DNA 1: AGACCATTGAAACAACTGGAGGAGTACTCTGACTGAACTTAATTCTTCAT
DNA 2: AGAATGAAGAATTAAGTTCAGTCAGAGTACTCCTCCAGTTGTTTCAATGG
B3: the binding result (5' overhangs) was “no binding”.

B4: Ins2 -144 (dsDNA)
DNA 1: TGCTTTCTGCAGACCTAGCACCAGGCAAGTGTTTGGAAACTGCAGCT
DNA 2: CTGAAGCTGCAGTTTCCAAACACTTGCCTGGTGCTAGGTCTGCAGAA
B4: the binding result (5' overhangs) is “no binding”.

B5: Nkx2.2 AAGT consensus (dsDNA)
DNA 1: TCGACGCGATTTTTCAAGTGGTTTTCAGTAGC
DNA 2: AGCTGCTACTGAAAACCACTTGAAAAATCGCG
As for B5, the binding result (5' overhang 4 nt) is “binds”.
